From patent US20250295802A1, “HER3 ANTIBODY-DRUG CONJUGATE AND USE THEREOF” (DUALITY BIOLOGICS (SUZHOU) CO., LTD., priority 2022, published 2025)

Experiments:
[1] = target: HER3 on tumor cell lines (NCI-N87, MDA-MB-468, MDA-MB-453, HCC1569 and other cells with different HER3 surface levels) (UniProt P21860); experiment: cell-based or functional assay
[2] = target: HER3 on tumor cell lines (NCI-N87, MDA-MB-468, MDA-MB-453, HCC1569 and other cells with different HER3 … (UniProt P21860 20-1342, limits assumed)); experiment: cell-based or functional assay
[3] = target: T1, human HER3-huFc (human, UniProt P21860 20-643); experiment: ELISA after 5 freeze-thaw cycles
T1 construct: also called huHER3; not shown: human Fc (huFc)

[4] = target: T1, human HER3-huFc; experiment: ELISA after 2 h of incubation at pH 3.5
Method: (§1) Antibody stability test: the purified antibody at 5 mg/mL was stored at 4° C. as regular practice, incubated at 40° C. for 7 days and 14 days for heat stability evaluation, transferred to a glycine solution at pH 3.5 for regeneration, and stored for 2, 4 and 6 h for acid stability evaluation, or subjected to repeated freeze-thaw treatments for 4 or 6 cycles for freeze-thaw stability evaluation. Aggregation was measured by SEC-HPLC, and binding affinity was determined by ELISA.
(§2) EC50 was determined by ELISA.

[5] = target: T2, His-HER3 (UniProt P21860 20-643, limits assumed); experiment: SPR, Biacore T200, antibody captured on protein A chip, His-HER3 as analyte
T2 construct: Analyte of the Biacore assay; not shown: His tag
Method: Affinity assay by surface plasmon resonance (SPR): antibody kinetics and affinity were determined using Biacore T200. Briefly, the recombinant human HER3 antibody was immobilized on a protein A chip (GE, Cat. 29-1275-5).
The binding affinity of humanized 3F8 (hu3F8) and chimeric 3F8. Binding kinetics of 3 humanized 3F8 clones and chimeric 3F8 were determined by Biacore. Three humanized 3F8 clones (clone 1, clone 2 and clone 3) had different heavy chains and one identical light chain. Clone 1, clone 2, and clone 3 corresponded to hu3F8-1, hu3F8-2, and hu3F8-3, respectively.

[6] = target: T1, human HER3-huFc; experiment: ELISA after 3 freeze-thaw cycles
[7] = target: T1, human HER3-huFc; experiment: ELISA, 0 days at 40 °C
Method: as §1
(§3) The chimeric antibody 3F8 was subjected to parallel assay.

[8] = target: T1, human HER3-huFc; experiment: ELISA after 0 h of incubation at pH 3.5
Method: as §1, §2

[9] = target: T1, human HER3-huFc; experiment: ELISA, 0 freeze-thaw cycles
[10] = target: T1, human HER3-huFc; experiment: ELISA after 7 days at 40 °C
Method: as §1, §3

[11] = target: T1, human HER3-huFc; experiment: ELISA after 4 h of incubation at pH 3.5
Method: as §1, §2

[12] = target: T1, human HER3-huFc; experiment: ELISA after 14 days at 40 °C
Method: as §1, §3

[13] = target: T1, human HER3-huFc; experiment: ELISA after 6 h of incubation at pH 3.5
Method: as §1, §2

[14] = target: T1, human HER3-huFc; experiment: ELISA after 0 h of incubation at pH 3.5; 0 h of incubation at pH 3.5 (untreated time point)
Method: as §1, §2

Molecule | HCC1569 IC50 (nM), inhibition of in vitro proliferation (CTG, 6 days) [1] [nM] | MDA-MB-453 IC50 (nM), inhibition of in vitro proliferation (CTG, 6 days) [1] [nM] | HCC1569 IC50 (nM), inhibition of in vitro proliferation (CTG, 6 days) [2] [nM] | MDA-MB-453 IC50 (nM), inhibition of in vitro proliferation (CTG, 6 days) [2] [nM] | EC50 [3] [µg/mL] | EC50 [4] [µg/mL] | Kd [5] [pM] | koff [5] [s⁻¹] | kon [5] [M⁻¹ s⁻¹] | EC50 [6] [µg/mL] | EC50 [7] [µg/mL] | EC50 [8] [µg/mL] | EC50 [9] [µg/mL] | EC50 [10] [µg/mL] | EC50 [11] [µg/mL] | EC50 [12] [µg/mL] | EC50 [13] [µg/mL] | EC50 [14] [µg/mL]
Reference ADC-1 (U3-1402) (antibody) | 40.7 | 9.62 | – | – | – | – | – | – | – | – | – | – | – | – | – | – | – | –
antibody-drug conjugate ADC-1-X1 (hu3F8-2-X1) (antibody, human IgG1, kappa, V domains shown, linker-payload X1 coupled after TCEP reduction; positions not given; linker-payload X1 coupled after TCEP reduction; positions not given; DAR 7.12 for the whole antibody) VH: QVQLQESGPGLVKPSETLSLTCTVSGYSITSAYYWNWIRQPFGKGLEWMGYISYDGRNNFNPSLKNRVTISRDTSKNQFSLKLSSVTAADTAVYYCARDGDYDYFDYWGQGTTVTVSS VL: DIQMTQSPSSLSASVGDRVTITCRASQDISNYLNWYQQKPGKAPKLLIYYTSILHSGVPSRFSGSGSGTDYTFTISSLQPEDIATYFCQQGDTLPPTFGGGTKLEIKR | – | – | 0.115 | 0.042 | – | – | – | – | – | – | – | – | – | – | – | – | – | –
humanized 3F8 antibody hu3F8-2 (antibody, human IgG1, kappa, V domains shown, also called Clone 2; clone-2) VH: QVQLQESGPGLVKPSETLSLTCTVSGYSITSAYYWNWIRQPFGKGLEWMGYISYDGRNNFNPSLKNRVTISRDTSKNQFSLKLSSVTAADTAVYYCARDGDYDYFDYWGQGTTVTVSS VL: DIQMTQSPSSLSASVGDRVTITCRASQDISNYLNWYQQKPGKAPKLLIYYTSILHSGVPSRFSGSGSGTDYTFTISSLQPEDIATYFCQQGDTLPPTFGGGTKLEIKR | – | – | – | – | 0.0438 | 0.0483 | 492 | 0.000328 | 666000 | 0.0467 | 0.0454 | 0.045 | 0.0425 | 0.0481 | 0.0445 | 0.052 | 0.0412 | –
antibody-drug conjugate ADC-1-X2 (hu3F8-2-X2) (antibody, human IgG1, kappa, V domains shown, linker-payload X2 coupled after TCEP reduction; positions not given; linker-payload X2 coupled after TCEP reduction; positions not given; DAR 7.53 for the whole antibody) VH: QVQLQESGPGLVKPSETLSLTCTVSGYSITSAYYWNWIRQPFGKGLEWMGYISYDGRNNFNPSLKNRVTISRDTSKNQFSLKLSSVTAADTAVYYCARDGDYDYFDYWGQGTTVTVSS VL: DIQMTQSPSSLSASVGDRVTITCRASQDISNYLNWYQQKPGKAPKLLIYYTSILHSGVPSRFSGSGSGTDYTFTISSLQPEDIATYFCQQGDTLPPTFGGGTKLEIKR | – | – | 5.17 | 0.094 | – | – | – | – | – | – | – | – | – | – | – | – | – | –
humanized 3F8 antibody hu3F8-1 (antibody, human IgG1, kappa, V domains shown, also called Clone 1; clone-1) VH: QVQLQESGPGLVKPSETLSLTCTVSGYSITSAYYWNWIRQPPGKGLEWIGYISYDGRNNFNPSLKNRVTISVDTSKNQFSLKLSSVTAADTAVYYCARDGDYDYFDYWGQGTTVTVSS VL: DIQMTQSPSSLSASVGDRVTITCRASQDISNYLNWYQQKPGKAPKLLIYYTSILHSGVPSRFSGSGSGTDYTFTISSLQPEDIATYFCQQGDTLPPTFGGGTKLEIKR | – | – | – | – | 0.0386 | 0.0381 | 1090 | 0.000612 | 560000 | 0.0443 | 0.0392 | – | 0.0454 | 0.0423 | 0.0409 | 0.041 | 0.039 | 0.0387
humanized 3F8 antibody hu3F8-3 (antibody, human IgG1, kappa, V domains shown, also called Clone 3; clone-3) VH: QVQLQESGPGLVKPSETLSLTCTVSGYSITSAYYWNWIRQPFGKGLEWMGYISYDGRNNFNPSLKNRVSISRDTSKNQFSLKLSSVTAADTATYYCARDGDYDYFDYWGQGTTVTVSS VL: DIQMTQSPSSLSASVGDRVTITCRASQDISNYLNWYQQKPGKAPKLLIYYTSILHSGVPSRFSGSGSGTDYTFTISSLQPEDIATYFCQQGDTLPPTFGGGTKLEIKR | – | – | – | – | 0.0336 | 0.0417 | 540 | 0.000348 | 644000 | 0.0374 | 0.0424 | 0.0387 | 0.0423 | 0.047 | 0.0394 | 0.0413 | 0.0381 | –
chimeric 3F8 antibody (antibody, human IgG1, V domains shown, also called ch3F8; Chimeric antibody) VH: DVQLQESGPGLVKPSQSLSLTCSVTGYSITSAYYWNWIRQFPGDKLEWMGYISYDGRNNFNPSLKNRISITRDTSKNQFFLKLNSVTSGDTATYYCARDGDYDYFDYWGQGTTLTVSS VL: DIQMTQTTSSLSASLGDRVTISCRASQDISNYLNWYQQKPDGTFKLLIYYTSILHSGVPSRFSGSGSGTDYSLTISNLEQEDIATYFCQQGDTLPPTFGAGTKLELK | – | – | – | – | – | – | 624 | 0.000391 | 628000 | – | 0.0474 | – | 0.0471 | – | – | – | – | –
